Here are results for one substance from publication PMC4686813.

For this assay, the target named is Sec61β (dog (endogenous in canine pancreatic microsomes)) (UniProt P60467). The assay can be described thus: cross-linking; BMH on microsomes stripped of ribosomes with EDTA and high salt (EKRM); western blot with anti-Sec62; also with purified canine ribosomes added back.
Sequence of UniProt P60467 (P60467 whole entry): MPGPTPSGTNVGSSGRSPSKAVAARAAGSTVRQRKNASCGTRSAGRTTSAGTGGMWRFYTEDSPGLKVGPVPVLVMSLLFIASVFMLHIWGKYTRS

As for “Sec62 (from UniProt P82009 1-39) (natural protein)”, the percent of Sec62 cross-linked to Sec61β was above 50%.
